Data from IntAct's records for PubMed 31515488.

B1: Coiled-coil domain-containing glutamate-rich protein 1 (Homo sapiens), Q8TC90 (parent)
chain: MTQTLDTREDPLNLGGGGGGGCGCGWAHSASLSSWSSCHRRRPGAPAYNRPHRYSPKTEYGPPRKQPKQQHGPGFWFQPPVCSNWGCWGGPWRPPPPGFWKFPCPVQVFRVYGLHPLCFCCCSCWSGSWNPGWVKPPGRKKRWGRRGRGLRHHPRHSYPRSPPADVSTLPRPVKLYEWREPGMRAPPNTTQFIMNQIYEDMRQQEKVERQQEALRAQKATVSGEASPARSSGNDAPPGGSKETWGLQETLYGFVQNPSLAFSPNPEENQSLAPLLVEEEEEKKNDDEEEYDQEVCDAKEASEEEEEVEDEEEEVEDEEEEEVEEAEYVEEGEEELEEEELEEEEEVLEENEQRGEEFHLPLEMPLSIFVEAEEKRENFISCTFLNPEQIIPKVPQESLFMAQDFNC
B2: Zinc finger CCCH-type with G patch domain-containing protein (Homo sapiens), Q8N5A5 (parent)
chain: MDEESLESALQTYRAQLQQVELALGAGLDSSEQADLRQLQGDLKELIELTEASLVSVRKSSLLAALDEERPGRQEDAEYQAFREAITEAVEAPAAARGSGSETVPKAEAGPESAAGGQEEEEGEDEEELSGTKVSAPYYSSWGTLEYHNAMVVGTEEAEDGSAGVRVLYLYPTHKSLKPCPFFLEGKCRFKENCRFSHGQVVSLDELRPFQDPDLSSLQAGSACLAKHQDGLWHAARITDVDNGYYTVKFDSLLLREAVVEGDGILPPLRTEATESDSDSDGTGDSSYARVVGSDAVDSAQSSALCPSLAVVGSDAVDSGTCSSAFAGWEVHTRGIGSRLLTKMGYEFGKGLGRHAEGRVEPIHAVVLPRGKSLDQCVETLQKQTRVGKAGTNKPPRCRGRGARPGGRPAPRNVFDFLNEKLQGQAPGALEAGAAPAGRRSKDMYHASKSAKRALSLRLFQTEEKIERTQRDIRSIQEALARNAGRHSVASAQLQEKLAGAQRQLGQLRAQEAGLQQEQRKADTHKKMTEF
B3: Lymphokine-activated killer T-cell-originated protein kinase (Homo sapiens), Q96KB5 (parent)
chain: MEGISNFKTPSKLSEKKKSVLCSTPTINIPASPFMQKLGFGTGVNVYLMKRSPRGLSHSPWAVKKINPICNDHYRSVYQKRLMDEAKILKSLHHPNIVGYRAFTEANDGSLCLAMEYGGEKSLNDLIEERYKASQDPFPAAIILKVALNMARGLKYLHQEKKLLHGDIKSSNVVIKGDFETIKICDVGVSLPLDENMTVTDPEACYIGTEPWKPKEAVEENGVITDKADIFAFGLTLWEMMTLSIPHINLSNDDDDEDKTFDESDFDDEAYYAALGTRPPINMEELDESYQKVIELFSVCTNEDPKDRPSAAHIVEALETDV
partner: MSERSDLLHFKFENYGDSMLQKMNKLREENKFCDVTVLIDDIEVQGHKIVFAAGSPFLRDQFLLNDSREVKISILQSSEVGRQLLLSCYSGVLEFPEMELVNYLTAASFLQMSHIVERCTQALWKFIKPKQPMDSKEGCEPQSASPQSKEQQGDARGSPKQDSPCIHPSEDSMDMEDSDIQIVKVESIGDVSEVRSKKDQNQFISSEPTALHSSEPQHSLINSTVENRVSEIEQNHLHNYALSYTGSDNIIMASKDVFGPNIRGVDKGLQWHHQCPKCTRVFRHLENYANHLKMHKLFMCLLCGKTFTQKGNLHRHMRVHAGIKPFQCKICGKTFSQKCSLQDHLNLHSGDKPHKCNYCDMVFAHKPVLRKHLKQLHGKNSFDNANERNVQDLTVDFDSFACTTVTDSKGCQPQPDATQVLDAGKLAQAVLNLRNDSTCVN
B4: Coiled-coil domain-containing protein 33 (Homo sapiens), Q8N5R6-5 (parent)
chain: MGEPGPPSPPAPKAAPGLIDSFSEMNNYRRAMQKMAEDILSLRRQASILEGENRILRSRLAQQEEEEGQGKASEAQNTVSMKQKLLLSELDMKKLRDRVQHLQNELIRKNDREKELLLLYQAQQPQAALLKQYQGKLQKMKALEETVRHQEKVIEKMERVLEDRLQDRSKPPPLNRQQGKPYTGFPMLSASGLPLGSMGENLPVELYSVLLAENAKLRTELDKNRHQQAPIILQQQALPVDPGELGAGGDLTERLQETHGPGHSECTETLPAQDLLSGTSDKFNLLAKLEHAQSRILSLESQLEDSARRWGREKQDLATRLQEQEKGFRHPSNSIIIEQPVSDPPGVAPRGSGGGAGSHRTPKVTGP

Variants of: B1
Settings: with pls1_human PLSCR1, O15162
Sequence of pls1_human PLSCR1, O15162 (O15162 whole entry): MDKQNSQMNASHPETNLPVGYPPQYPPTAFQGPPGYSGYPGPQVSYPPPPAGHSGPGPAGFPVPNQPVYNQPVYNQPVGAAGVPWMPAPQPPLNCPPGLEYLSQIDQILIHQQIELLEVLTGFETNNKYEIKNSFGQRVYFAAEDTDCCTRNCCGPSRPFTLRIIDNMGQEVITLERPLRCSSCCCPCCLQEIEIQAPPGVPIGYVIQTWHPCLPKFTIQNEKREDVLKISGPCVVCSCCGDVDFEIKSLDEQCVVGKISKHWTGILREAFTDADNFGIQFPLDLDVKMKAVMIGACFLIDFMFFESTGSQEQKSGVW
With MTQTLDTREDPLNLGGGGGGGCGCGWAHSASLSSWSSCHRRRPGAPAYNRPHRYSPKTEYGPPRKQPKQQHGPGFWFQPPVCSNWGCWGGPWRPPPPGFWKFPCPVQVFRVYGLHPLCFCCCSCWSGSWNPGWVKPPGRKKRWGRRGRGLRHHPRHSYPRSPPADVSTLPRPVKLYEWREPGMRAPPNTTQFIMNQIYEDMRQQEKVERQQEALRAQKATVSGEASPARSSGNDAPPGGSKETWGLQETLYGFVQNPSLAFSPNPEENQSLAPLLVEEEEEKKNDDEEEYDQKVCDAKEASEEEEEVEDEEEEVEDEEEEEVEEAEYVEEGEEELEEEELEEEEEVLEENEQRGEEFHLPLEMPLSIFVEAEEKRENFISCTFLNPEQIIPKVPQESLFMAQDFNC [E293K] the “effect of a mutation on the interaction” value was “with no effect”.

Variants of: B1
Settings: with nt2na_human NOTCH2NLA
In the case of MTQTLDTREDPLNLGGGGGGGCGCGWAHSASLSSWSSCHRRRPGAPAYNRPHRYSPKTEYGPPRKQPKQQHGPGFWFQPPVCSNWGCWGGPWRPPPPGFWKFPCPVQVFRVYGLHPLCFCCCSCWSGSWNPGWVKPPGRKKRWGRRGRGLRHHPRHSYPRSPPADVSTLPRPVKLYEWREPGMRAPPNTTQFIMNQIYEDMRQQEKVERQQEALRAQKATVSGEASPARSSGNDAPPGGSKETWGLQETLYGFVQNPSLAFSPNPEENQSLAPLLVEEEEEKKNDDEEEYDQKVCDAKEASEEEEEVEDEEEEVEDEEEEEVEEAEYVEEGEEELEEEELEEEEEVLEENEQRGEEFHLPLEMPLSIFVEAEEKRENFISCTFLNPEQIIPKVPQESLFMAQDFNC [E293K], the “effect of a mutation on the interaction” value is reported as “with no effect”.

Variants of: B2
Settings: with tfp11_human TFIP11, Q9UBB9
Sequence of tfp11_human TFIP11, Q9UBB9 (Q9UBB9 whole entry): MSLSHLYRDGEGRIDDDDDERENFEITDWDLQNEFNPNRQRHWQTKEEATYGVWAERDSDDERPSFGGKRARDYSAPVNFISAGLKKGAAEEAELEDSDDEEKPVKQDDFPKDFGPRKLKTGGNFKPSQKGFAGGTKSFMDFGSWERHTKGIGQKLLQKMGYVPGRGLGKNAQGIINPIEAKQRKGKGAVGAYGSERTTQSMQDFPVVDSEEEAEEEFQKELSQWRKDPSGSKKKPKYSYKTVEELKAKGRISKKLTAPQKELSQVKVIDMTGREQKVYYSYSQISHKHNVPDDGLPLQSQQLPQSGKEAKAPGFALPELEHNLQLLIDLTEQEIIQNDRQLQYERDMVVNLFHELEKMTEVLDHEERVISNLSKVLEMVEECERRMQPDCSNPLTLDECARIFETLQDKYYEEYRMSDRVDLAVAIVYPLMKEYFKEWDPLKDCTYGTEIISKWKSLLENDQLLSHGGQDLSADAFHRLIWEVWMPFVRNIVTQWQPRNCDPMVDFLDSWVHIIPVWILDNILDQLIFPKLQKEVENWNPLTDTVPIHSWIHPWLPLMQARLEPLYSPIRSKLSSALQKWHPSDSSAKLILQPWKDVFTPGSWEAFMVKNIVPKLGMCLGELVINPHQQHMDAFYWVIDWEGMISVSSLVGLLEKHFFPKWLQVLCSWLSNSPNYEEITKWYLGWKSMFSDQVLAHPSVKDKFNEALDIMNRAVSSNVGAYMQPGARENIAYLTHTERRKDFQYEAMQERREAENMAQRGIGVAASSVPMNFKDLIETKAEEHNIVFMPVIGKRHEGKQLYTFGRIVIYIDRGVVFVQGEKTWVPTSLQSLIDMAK
In the case of MDEESLESALQTYRAQLQQVELALGAGLDSSEQADLRQLQGDLKELIELTEASLVSVRKSRLLAALDEERPGRQEDAEYQAFREAITEAVEAPAAARGSGSETVPKAEAGPESAAGGQEEEEGEDEEELSGTKVSAPYYSSWGTLEYHNAMVVGTEEAEDGSAGVRVLYLYPTHKSLKPCPFFLEGKCRFKENCRFSHGQVVSLDELRPFQDPDLSSLQAGSACLAKHQDGLWHAARITDVDNGYYTVKFDSLLLREAVVEGDGILPPLRTEATESDSDSDGTGDSSYARVVGSDAVDSAQSSALCPSLAVVGSDAVDSGTCSSAFAGWEVHTRGIGSRLLTKMGYEFGKGLGRHAEGRVEPIHAVVLPRGKSLDQCVETLQKQTRVGKAGTNKPPRCRGRGARPGGRPAPRNVFDFLNEKLQGQAPGALEAGAAPAGRRSKDMYHASKSAKRALSLRLFQTEEKIERTQRDIRSIQEALARNAGRHSVASAQLQEKLAGAQRQLGQLRAQEAGLQQEQRKADTHKKMTEF [S61R], the “effect of a mutation on the interaction” value is reported as “with no effect”.

Variants of: B2
Settings: with cep70_human CEP70, Q8NHQ1
Sequence of cep70_human CEP70, Q8NHQ1 (Q8NHQ1 whole entry): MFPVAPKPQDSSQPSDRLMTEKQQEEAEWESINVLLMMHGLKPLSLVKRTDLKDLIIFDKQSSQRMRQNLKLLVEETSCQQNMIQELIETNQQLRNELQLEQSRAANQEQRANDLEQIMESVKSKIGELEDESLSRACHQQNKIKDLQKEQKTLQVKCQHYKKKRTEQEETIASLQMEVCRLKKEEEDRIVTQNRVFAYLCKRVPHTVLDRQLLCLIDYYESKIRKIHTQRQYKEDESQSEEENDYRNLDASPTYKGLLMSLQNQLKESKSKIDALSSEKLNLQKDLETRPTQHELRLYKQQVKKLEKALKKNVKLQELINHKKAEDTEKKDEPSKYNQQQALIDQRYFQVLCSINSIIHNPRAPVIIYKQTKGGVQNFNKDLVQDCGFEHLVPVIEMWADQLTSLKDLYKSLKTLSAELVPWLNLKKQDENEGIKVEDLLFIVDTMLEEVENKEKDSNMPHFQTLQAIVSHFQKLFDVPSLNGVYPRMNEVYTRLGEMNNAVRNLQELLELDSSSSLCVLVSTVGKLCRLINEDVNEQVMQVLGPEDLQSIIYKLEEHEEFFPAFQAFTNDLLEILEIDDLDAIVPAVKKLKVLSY
With MDEESLESALQTYRAQLQQVELALGAGLDSSEQADLRQLQGDLKELIELTEASLVSVRKSRLLAALDEERPGRQEDAEYQAFREAITEAVEAPAAARGSGSETVPKAEAGPESAAGGQEEEEGEDEEELSGTKVSAPYYSSWGTLEYHNAMVVGTEEAEDGSAGVRVLYLYPTHKSLKPCPFFLEGKCRFKENCRFSHGQVVSLDELRPFQDPDLSSLQAGSACLAKHQDGLWHAARITDVDNGYYTVKFDSLLLREAVVEGDGILPPLRTEATESDSDSDGTGDSSYARVVGSDAVDSAQSSALCPSLAVVGSDAVDSGTCSSAFAGWEVHTRGIGSRLLTKMGYEFGKGLGRHAEGRVEPIHAVVLPRGKSLDQCVETLQKQTRVGKAGTNKPPRCRGRGARPGGRPAPRNVFDFLNEKLQGQAPGALEAGAAPAGRRSKDMYHASKSAKRALSLRLFQTEEKIERTQRDIRSIQEALARNAGRHSVASAQLQEKLAGAQRQLGQLRAQEAGLQQEQRKADTHKKMTEF [S61R] the “effect of a mutation on the interaction” value was “with no effect”.

Variants of: B2
Settings: with ldoc1_human LDOC1, O95751
Sequence of ldoc1_human LDOC1, O95751 (O95751 whole entry): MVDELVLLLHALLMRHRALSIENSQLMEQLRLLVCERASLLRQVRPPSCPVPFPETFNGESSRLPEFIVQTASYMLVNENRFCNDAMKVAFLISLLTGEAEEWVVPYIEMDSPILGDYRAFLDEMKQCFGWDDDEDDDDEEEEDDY
MDEESLESALQTYRAQLQQVELALGAGLDSSEQADLRQLQGDLKELIELTEASLVSVRKSRLLAALDEERPGRQEDAEYQAFREAITEAVEAPAAARGSGSETVPKAEAGPESAAGGQEEEEGEDEEELSGTKVSAPYYSSWGTLEYHNAMVVGTEEAEDGSAGVRVLYLYPTHKSLKPCPFFLEGKCRFKENCRFSHGQVVSLDELRPFQDPDLSSLQAGSACLAKHQDGLWHAARITDVDNGYYTVKFDSLLLREAVVEGDGILPPLRTEATESDSDSDGTGDSSYARVVGSDAVDSAQSSALCPSLAVVGSDAVDSGTCSSAFAGWEVHTRGIGSRLLTKMGYEFGKGLGRHAEGRVEPIHAVVLPRGKSLDQCVETLQKQTRVGKAGTNKPPRCRGRGARPGGRPAPRNVFDFLNEKLQGQAPGALEAGAAPAGRRSKDMYHASKSAKRALSLRLFQTEEKIERTQRDIRSIQEALARNAGRHSVASAQLQEKLAGAQRQLGQLRAQEAGLQQEQRKADTHKKMTEF [S61R] was tested, and the “effect of a mutation on the interaction” value was “with no effect”.

Variants of: B3
Settings: with zbt26_human ZBTB26, Q9HCK0
For MEGISNFKTPSKLSEKKKSVLCSTPTINIPASPFMQKLGFGTGVNVYLMKRSPRGLSHSPWAVKKINPICNDHYRSVYQKRLMDEAKILKSLHHPNIVGYRAFTEASDGSLCLAMEYGGEKSLNDLIEERYKASQDPFPAAIILKVALNMARGLKYLHQEKKLLHGDIKSSNVVIKGDFETIKICDVGVSLPLDENMTVTDPEACYIGTEPWKPKEAVEENGVITDKADIFAFGLTLWEMMTLSIPHINLSNDDDDEDKTFDESDFDDEAYYAALGTRPPINMEELDESYQKVIELFSVCTNEDPKDRPSAAHIVEALETDV [N107S], the “effect of a mutation on the interaction” value was “disrupting interaction strength”. For MEGISNFKTPSKLSEKKKSVLCSTPTINIPASPFMQKLGFGTGVNVYLMKRSPRGLSHSPWAVKKINPICNDHYRSVYQKRLMDEAKILKSLHHPNIVGYRAFTEANDGSLCLAMEYGGEKSLNDLIEERYKASQDPFPAAIILKVALNMARGLKYLHQEKKLLHGDIKSSNVVIKGDFETIKICDVGVSLPLDENMTVTDPEACYIGTEPWKPKEAVEDNGVITDKADIFAFGLTLWEMMTLSIPHINLSNDDDDEDKTFDESDFDDEAYYAALGTRPPINMEELDESYQKVIELFSVCTNEDPKDRPSAAHIVEALETDV [E220D], the “effect of a mutation on the interaction” value was “with no effect”. For MEGISNFKTPSKLSEKKKSVLCSTPTINIPASPFMQKLGFGTGVNVYLMKRSPRGLSHSPWAVKKINPICNDHYRSVYQKRLMDEAMILKSLHHPNIVGYRAFTEANDGSLCLAMEYGGEKSLNDLIEERYKASQDPFPAAIILKVALNMARGLKYLHQEKKLLHGDIKSSNVVIKGDFETIKICDVGVSLPLDENMTVTDPEACYIGTEPWKPKEAVEENGVITDKADIFAFGLTLWEMMTLSIPHINLSNDDDDEDKTFDESDFDDEAYYAALGTRPPINMEELDESYQKVIELFSVCTNEDPKDRPSAAHIVEALETDV [K87M], the “effect of a mutation on the interaction” value was “with no effect”.

Variants of: B4
Settings: with smad3_human SMAD3, P84022
Sequence of smad3_human SMAD3, P84022 (P84022 whole entry, looked up): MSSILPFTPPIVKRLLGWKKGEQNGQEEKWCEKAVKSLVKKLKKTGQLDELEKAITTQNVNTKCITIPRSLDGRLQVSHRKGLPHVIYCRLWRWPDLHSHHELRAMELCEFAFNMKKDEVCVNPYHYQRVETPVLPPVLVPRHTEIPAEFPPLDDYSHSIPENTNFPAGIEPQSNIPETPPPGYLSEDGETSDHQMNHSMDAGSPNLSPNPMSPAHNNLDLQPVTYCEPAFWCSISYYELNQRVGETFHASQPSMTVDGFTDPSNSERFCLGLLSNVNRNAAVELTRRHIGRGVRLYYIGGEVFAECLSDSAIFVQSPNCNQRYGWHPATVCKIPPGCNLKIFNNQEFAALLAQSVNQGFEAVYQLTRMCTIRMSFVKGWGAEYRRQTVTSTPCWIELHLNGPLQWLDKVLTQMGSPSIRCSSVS
R30L was tested, and the “effect of a mutation on the interaction” value was “with no effect”.

Variants of: B4
Settings: with aakb2_human PRKAB2, O43741
Sequence of aakb2_human PRKAB2, O43741 (O43741 whole entry): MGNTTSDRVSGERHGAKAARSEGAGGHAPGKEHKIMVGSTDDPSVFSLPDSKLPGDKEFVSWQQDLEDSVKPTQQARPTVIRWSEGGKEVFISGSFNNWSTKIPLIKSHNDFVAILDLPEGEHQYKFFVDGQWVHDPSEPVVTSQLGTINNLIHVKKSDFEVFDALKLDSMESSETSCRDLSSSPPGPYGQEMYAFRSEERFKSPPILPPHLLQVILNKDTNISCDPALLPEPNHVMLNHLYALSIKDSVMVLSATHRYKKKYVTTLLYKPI
In the case of R30L, the “effect of a mutation on the interaction” value is reported as “with no effect”.

Variants of: B4
Settings: with blk_human BLK
R30L was tested, and the “effect of a mutation on the interaction” value was “with no effect”.

Variants of: B4
Settings: with ptk6_human PTK6, Q13882
In the case of S73N, the “effect of a mutation on the interaction” value is reported as “with no effect”.

Variants of: B4
Settings: with bccip_human BCCIP
S73N was tested, and the “effect of a mutation on the interaction” value was “with no effect”.
